From publication PMC9482650, “Quantitative fragmentomics allow affinity mapping of interactomes” (Nature Communications, 2022)

What was measured:
Assay in all cases: holdup assay
Parameters in all cases: key: below the threshold = too weak to quantify, mostly under pKd 3.1 to 4
[1] = target: T1, PDZD11, Q5EBL8
T1 sequence (Q5EBL8 42-139, limits assumed, looked up): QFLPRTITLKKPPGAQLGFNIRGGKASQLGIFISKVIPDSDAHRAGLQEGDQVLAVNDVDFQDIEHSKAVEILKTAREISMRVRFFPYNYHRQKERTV

[2] = target: T2, PARD6B, Q9BYG5; conditions: plain residues with an end cap or a label only (N-terminal biotin on a linker: (peg)3)
T2 sequence (Q9BYG5 152-260, limits assumed, looked up): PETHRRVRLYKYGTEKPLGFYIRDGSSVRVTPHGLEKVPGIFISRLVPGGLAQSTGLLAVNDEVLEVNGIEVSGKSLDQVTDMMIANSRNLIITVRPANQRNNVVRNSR

[3] = target: MAGI3_3, Q5TCQ9
MAGI3_3, Q5TCQ9, sequence (Q5TCQ9 572-655): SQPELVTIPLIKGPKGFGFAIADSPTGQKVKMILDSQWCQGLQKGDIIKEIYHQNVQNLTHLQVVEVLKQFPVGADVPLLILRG

[4] = target: T3, MPDZ_2, O75970
T3 sequence (O75970 252-347, limits assumed, looked up): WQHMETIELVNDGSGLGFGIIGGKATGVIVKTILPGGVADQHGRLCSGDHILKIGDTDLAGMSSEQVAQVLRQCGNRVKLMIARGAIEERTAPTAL

[5] = target: DLG5_2, Q8TDM6
DLG5_2, Q8TDM6, sequence (Q8TDM6 714-800): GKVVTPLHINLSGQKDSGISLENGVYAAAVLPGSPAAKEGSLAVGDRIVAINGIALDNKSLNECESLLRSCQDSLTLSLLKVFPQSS

[6] = target: T4, SHROOM2, Q13796
T4 sequence (Q13796 21-118, limits assumed, looked up): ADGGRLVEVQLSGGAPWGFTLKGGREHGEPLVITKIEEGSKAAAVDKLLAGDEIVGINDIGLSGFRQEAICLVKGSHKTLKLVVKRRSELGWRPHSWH

[7] = target: T5, MPDZ_3, O75970
T5 sequence (O75970 372-473, limits assumed, looked up): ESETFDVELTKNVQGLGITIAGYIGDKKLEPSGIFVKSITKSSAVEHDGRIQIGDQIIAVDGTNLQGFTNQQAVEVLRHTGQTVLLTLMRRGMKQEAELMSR

[8] = target: T6, PDZD2_1, O15018
T6 sequence (O15018 80-192, limits assumed, looked up): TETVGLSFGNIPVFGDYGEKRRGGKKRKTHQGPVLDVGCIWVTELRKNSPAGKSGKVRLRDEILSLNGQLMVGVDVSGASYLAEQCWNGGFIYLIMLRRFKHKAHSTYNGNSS

[9] = target: PDLIM4, P50479
PDLIM4, P50479, sequence (P50479 1-83): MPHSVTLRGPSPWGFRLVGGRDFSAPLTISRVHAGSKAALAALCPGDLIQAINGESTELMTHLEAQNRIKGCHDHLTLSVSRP

[10] = target: LIMK1, P53667
LIMK1, P53667, sequence (P53667 155-268): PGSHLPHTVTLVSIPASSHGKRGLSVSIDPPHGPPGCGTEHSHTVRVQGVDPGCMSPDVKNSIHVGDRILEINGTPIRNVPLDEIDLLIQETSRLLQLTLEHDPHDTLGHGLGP

[11] = target: PARD3_1, Q8TEW0
PARD3_1, Q8TEW0, sequence (Q8TEW0 264-372): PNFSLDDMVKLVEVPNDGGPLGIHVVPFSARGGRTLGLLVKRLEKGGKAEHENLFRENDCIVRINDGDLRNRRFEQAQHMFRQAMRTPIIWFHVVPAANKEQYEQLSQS

[12] = target: T7, USH1C_1, Q9Y6N9
T7 sequence (Q9Y6N9 82-179, limits assumed, looked up): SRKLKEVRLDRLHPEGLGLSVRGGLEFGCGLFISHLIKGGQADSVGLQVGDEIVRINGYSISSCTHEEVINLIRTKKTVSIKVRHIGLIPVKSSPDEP

[13] = target: T8, MPDZ_11, O75970
T8 sequence (O75970 1720-1817, limits assumed, looked up): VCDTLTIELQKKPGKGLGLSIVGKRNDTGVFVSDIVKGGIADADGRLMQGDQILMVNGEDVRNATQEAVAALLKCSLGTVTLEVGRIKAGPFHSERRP

[14] = target: T9, PDZD7_1, Q9H5P4
T9 sequence (Q9H5P4 81-178, limits assumed, looked up): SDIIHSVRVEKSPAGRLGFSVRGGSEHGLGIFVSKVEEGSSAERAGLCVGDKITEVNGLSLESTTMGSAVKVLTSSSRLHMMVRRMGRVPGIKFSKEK

[15] = target: T10, PDZD2_3, O15018
T10 sequence (O15018 581-682, limits assumed, looked up): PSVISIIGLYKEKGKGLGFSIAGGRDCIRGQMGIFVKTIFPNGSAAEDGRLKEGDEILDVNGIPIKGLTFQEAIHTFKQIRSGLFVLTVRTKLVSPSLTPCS

[16] = target: NHERF4_3, Q86UT5
NHERF4_3, Q86UT5, sequence (Q86UT5 325-412): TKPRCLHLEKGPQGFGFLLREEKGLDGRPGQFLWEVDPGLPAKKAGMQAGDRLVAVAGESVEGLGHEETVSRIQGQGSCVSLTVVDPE

[17] = target: PARD3B_2, Q8TEW8
PARD3B_2, Q8TEW8, sequence (Q8TEW8 376-471): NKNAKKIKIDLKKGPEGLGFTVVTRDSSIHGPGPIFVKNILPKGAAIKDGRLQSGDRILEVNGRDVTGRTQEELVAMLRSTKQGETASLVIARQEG

[18] = target: T11, NHERF1_2, O14745
T11 sequence (O14745 149-244, limits assumed, looked up): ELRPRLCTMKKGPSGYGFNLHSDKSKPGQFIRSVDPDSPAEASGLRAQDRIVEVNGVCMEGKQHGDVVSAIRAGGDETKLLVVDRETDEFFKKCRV

[19] = target: RGS3, P49796-9
RGS3, P49796-9, sequence (P49796 other isoform, or with tags, fused parts or gaps): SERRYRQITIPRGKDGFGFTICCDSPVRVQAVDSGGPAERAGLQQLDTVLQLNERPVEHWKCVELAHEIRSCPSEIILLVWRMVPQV

[20] = target: T12, SHROOM3, Q8TF72
T12 sequence (Q8TF72 20-120, limits assumed, looked up): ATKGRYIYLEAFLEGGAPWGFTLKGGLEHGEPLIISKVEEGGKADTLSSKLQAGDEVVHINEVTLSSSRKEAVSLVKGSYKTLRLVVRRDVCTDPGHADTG

[21] = target: T13, GRIP1_1, Q9Y3R0
T13 sequence (Q9Y3R0 48-146, limits assumed, looked up): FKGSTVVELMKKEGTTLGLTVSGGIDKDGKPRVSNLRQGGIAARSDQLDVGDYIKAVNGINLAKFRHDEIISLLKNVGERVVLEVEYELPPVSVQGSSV

[22] = target: T14, PDZD4, Q76G19
T14 sequence (Q76G19 125-224, limits assumed, looked up): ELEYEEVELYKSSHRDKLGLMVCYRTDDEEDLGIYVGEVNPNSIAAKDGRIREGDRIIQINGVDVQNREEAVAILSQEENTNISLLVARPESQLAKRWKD

[23] = target: CNKSR3, Q6P9H4
CNKSR3, Q6P9H4, sequence (Q6P9H4 203-303): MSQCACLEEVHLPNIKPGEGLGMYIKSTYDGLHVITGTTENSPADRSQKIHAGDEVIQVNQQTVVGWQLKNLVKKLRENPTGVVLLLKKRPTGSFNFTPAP

[24] = plain residues with an end cap or a label only (N-terminal biotin on a linker: (peg)3)
[25] = modified: phospho on T at position -2 from the C-terminal residue

In the case of RYEDTTLVEDTVL [WNV-NS5, Q9Q6P4], the pKd [1, 24] is reported as “below the threshold”, the pKd [2] is reported as “below the threshold” and the pKd [3, 24] is reported as “below the threshold”. For the same binder, the pKd [4, 24] was “below the threshold”, the pKd [5, 24] was “below the threshold” and the pKd [6, 24] was 4.14. The pKd [7, 24] was “below the threshold”, the pKd [8, 24] was “below the threshold” and the pKd [9, 24] was “below the threshold”. The pKd [10, 24] was “below the threshold”, the pKd [11, 24] was “below the threshold” and the pKd [12, 24] was “below the threshold”. For the same binder, the pKd [13, 24] was “below the threshold”, the pKd [14, 24] was “below the threshold” and the pKd [15, 24] was “below the threshold”. The pKd [16, 24] was “below the threshold”, the pKd [17, 24] was “below the threshold” and the pKd [18, 24] was “below the threshold”. For the same binder, the pKd [19, 24] was “below the threshold”, the pKd [20, 24] was “below the threshold” and the pKd [21, 24] was “below the threshold”. The pKd [22, 24] was “below the threshold”.

With RRRRSQSRESQC [HBV-HBc, P03193] the pKd [1, 24] was “below the threshold”, the pKd [2] was “below the threshold” and the pKd [3, 24] was “below the threshold”. The pKd [4, 24] was “below the threshold”, the pKd [5, 24] was “below the threshold” and the pKd [6, 24] was “below the threshold”. The pKd [7, 24] was “below the threshold”, the pKd [8, 24] was “below the threshold” and the pKd [9, 24] was “below the threshold”. For the same binder, the pKd [10, 24] was “below the threshold”, the pKd [11, 24] was “below the threshold” and the pKd [12, 24] was “below the threshold”. For the same binder, the pKd [23, 24] was “below the threshold”, the pKd [13, 24] was “below the threshold” and the pKd [14, 24] was “below the threshold”. For the same binder, the pKd [15, 24] was “below the threshold”, the pKd [16, 24] was “below the threshold” and the pKd [17, 24] was 3.85. The pKd [18, 24] was 3.96, the pKd [19, 24] was “below the threshold” and the pKd [20, 24] was “below the threshold”. For the same binder, the pKd [21, 24] was “below the threshold” and the pKd [22, 24] was “below the threshold”.

With SSRTRRETQL [HPV16-E6_-2P, P03126] the pKd [1, 25] was “below the threshold”, the pKd [3, 25] was “below the threshold” and the pKd [4, 25] was “below the threshold”. For the same binder, the pKd [5, 25] was “below the threshold”, the pKd [6, 25] was “below the threshold” and the pKd [7, 25] was “below the threshold”. For the same binder, the pKd [8, 25] was “below the threshold”, the pKd [9, 25] was “below the threshold” and the pKd [10, 25] was “below the threshold”. The pKd [11, 25] was “below the threshold”, the pKd [12, 25] was “below the threshold” and the pKd [23, 25] was “below the threshold”. The pKd [13, 25] was “below the threshold”, the pKd [14, 25] was “below the threshold” and the pKd [15, 25] was “below the threshold”. The pKd [16, 25] was “below the threshold”, the pKd [17, 25] was “below the threshold” and the pKd [18, 25] was “below the threshold”. For the same binder, the pKd [19, 25] was “below the threshold”, the pKd [20, 25] was “below the threshold” and the pKd [21, 25] was 4.61. The pKd [22, 25] was “below the threshold”.

For QQSMSSADSTQA [SARS-Cov2-N, P0DTC9], the pKd [1, 24] was “below the threshold”, the pKd [2] was “below the threshold” and the pKd [3, 24] was 3.78. The pKd [4, 24] was “below the threshold”, the pKd [5, 24] was “below the threshold” and the pKd [6, 24] was “below the threshold”. The pKd [7, 24] was “below the threshold”, the pKd [8, 24] was “below the threshold” and the pKd [9, 24] was “below the threshold”. The pKd [10, 24] was “below the threshold”, the pKd [11, 24] was “below the threshold” and the pKd [12, 24] was “below the threshold”. For the same binder, the pKd [23, 24] was “below the threshold”, the pKd [13, 24] was “below the threshold” and the pKd [14, 24] was “below the threshold”. The pKd [15, 24] was “below the threshold”, the pKd [16, 24] was “below the threshold” and the pKd [17, 24] was “below the threshold”. For the same binder, the pKd [18, 24] was “below the threshold”, the pKd [19, 24] was “below the threshold” and the pKd [20, 24] was “below the threshold”. The pKd [21, 24] was “below the threshold” and the pKd [22, 24] was “below the threshold”.
